Experimental data published in patent publication US6537972B1, “Compositions and methods for inhibiting human immunodeficiency virus infection by down-regulating human cellular genes” (Subsidiary No. 3., Inc., priority 1997, dated 2003).

What was measured:
[1] = test system: latent HIV provirus in OM10.1 cells; assay: Inhibition of TNF-α induction of latent HIV provirus in OM10.1 cells (CD4 / p24 by flow cytometry); assay type: cell-based, HIV-1
Procedure: OM10.1 cells were cultured in RPMI 1640 glucose-free media prior to and during incubation with NADH dehydrogenase inhibitors and TNF-α induction. The inhibitors were added to the cells followed by TNF-α induction 1-2 hours later. The expression of CD4 by the cells was assessed by anti-CD4 antibody staining and flow cytometry after 24 hour incubation at 37° C.

HIV-1SF2 = assay: Protection of GSE-transduced CEM-ss cells from productive infection with HIV-1SF2 (intracellular p24); assay type: cell-based; details: HIV-1SF2 at TCID50 of 1000; versus LNGFRM vector control; FIG. 3, 23, 24
Procedure: In Section 6.2, infra, several GSEs were tested for their ability to protect CEM-ss cells from infection with HIV-1 strain SF2. Uninfected cells were transduced with a retroviral construct containing either vector DNA or a GSE polynucleotide. Non-transduced cells were eliminated by selection of NGFR^+ cells by an antibody or by exposure to the selection agent, G-418. The percentage of p24^+ cells was determined at specific time points post infection.
(§1) In order to determine p24 expression in HIV-infected cells, the cells were first washed twice with Assay Buffer. About 10^6 cells were suspended in 100 μl Assay Buffer, mixed with 2 ml of Ortho PermeaFix Solution (Ortho Diagnostics), and incubated for 40 min. at room temperature. After centrifugation at 1200 rpm for 4 min. at 4° C., the cells were resuspended in 2 ml Wash Buffer (500 ml PBS, 25 ml fetal bovine serum, 1.5% bovine serum albumin and 0.0055% EDTA) for 10 min. at room temperature. After centrifugation, the cells were resuspended in 50 μl Wash Buffer and mixed with 1:500 dilution of an IgG22, antibody for 20 min. at 4° C., followed by incubation with 5-10 μl of anti-p24 antibody (KC57-FITC, Coulter) for 30 min. at 4° C. The cells were then washed twice with Wash Buffer and analyzed by flow cytometry.
A total of twenty GSEs were isolated by the two aforementioned selection strategies using OM10.1 and CEM-ss cells. […]

[2] = test system: latent HIV-1 provirus in OM10.1 cells; assay: GSE selection by maintained CD4 expression in OM10.1 cells after TNF-α induction; assay type: cell-based; details: GSE from HL-60 RFE library, selected in OM10.1 cells
Procedure: The libraries prepared from HL-60 cells according to the method of Section 6.1.1. supra, were transfected into the packaging cell line, PA317 (ATCC CRL #9078), and converted into retrovirus for infection of OM10.1 cells. Libraries in pLNCX vector were co-cultured and selected with G418. Libraries in pLNGFRM vector were transduced by spinoculation (centrifugation of target cells at 1200 xg for 90 min. in the presence of filtered retroviral supernatant) and selected by FACS sorting of the NGFR^+ population. After selection, the OM10.1 cells harboring the entire RFE library were induced with 10 U/ml of TNF-α at 37° C., and 24 hours later, were stained with an antibody and sorted for CD4 expression. Genomic DNA from the CD4^+ cells was purified and used for PCR amplification of inserts with the vector-derived primers. The amplified mixture was digested with EcoRI and BamHI and cloned back into the retroviral vector. The selection was repeated for additional rounds.
For the immunofluorescent staining of CD4^+ cells for selection, 10^7 cells were washed twice with Assay Buffer (500 ml PBS, 1 ml of 0.5 mM of EDTA at pH 8, 0.5 ml of 10% sodium azide and 10 ml of fetal bovine serum), and resuspended in 500 μl PBS to which 50 μl of anti-CD4 antibody (Q4120 PE, Sigma) was added. After incubation at 4° C. for 30 min., 5 ml of Assay Buffer was added and the cells centrifuged at 1200 rpm for 4 min. The cells were washed twice with Assay Buffer before sorting by FACS. The aforementioned procedure was performed under sterile conditions.
GSEs derived from cDNAs representing expressed human cellular genes were identified and isolated from a RFE library made from HL-60 cells using HIV provirus activation in OM10.1 cells as a read-out. Following transfection of the entire library into a packaging cell line, retrovirus carrying the library was used to infect OM10.1 cells by co-cultivation or spinoculation, and NGFR selection was performed to ensure the retention of the viral vector. When the infected cells were treated with TNF-α, a small number of residual CD4^+ cells were detected by an anti-CD4 antibody and sorted by FACS. The GSEs contained in these cells were recovered by PCR amplification and their nucleotide sequences determined.

HIV-1IIIB = assay: GSE selection by prevention of productive infection of CEM-ss cells by HIV-1IIIB; assay type: cell-based; details: GSE from HeLa RFE library, selected in CEM-ss cells
Procedure: Additionally, a normalized RFE library made from HeLa cells was transferred into CEM-ss cells and the neo resistant population was infected with TCID50 of 3000/10^6 cells of HIV-1IIIB. This RFE library was represented by 50×10^6 independent recombinant clones. Four and seven days after infection, a purified anti-CD4 monoclonal antibody, L77 (Becton Dickinson), was added at 5 μg/ml to prevent syncytia formation. Syncytia formation is thought to be prevented by blocking the interaction between gp120 expressed on the surface of an infected cell and CD4 on the surface of an uninfected cell. […] At 10-12 days after infection, CD4^+, p24^− cell population representing uninfected cells were sorted. Genomic DNA from the CD4^+, p24^− cells was purified and used for PCR amplification of inserts with the vector-derived primers. The amplified mixture was digested with EcoRI and BamHI and cloned back into the retroviral vector. The selection was repeated for additional rounds.
as §1

Molecule	suppression of HIV infection by the GSE (HIV-1IIIB)	further results
CCC1(CCC(C)C)C(=O)NC(=O)NC1=O [amytal]	–	induction of latent HIV provirus in OM10.1 cells (retention of CD4 expression) ([1]; TNF-α-induced OM10.1 cells, 24 hour incubation, FIG. 25, 26): inhibited the induction of latent HIV provirus in OM10.1 cells in a dose-dependent manner; intracellular p24 levels in treated cells ([1]; compared with untreated controls): suppressed intracellular p24 levels
CF-315: GSE; antisense of a sequence with identity to the gene for the ND6 subunit of human NADH dehydrogenase (nucleic acid) antisense: AGATCCTATTGGTGCGTGGGCTTTGTATGATTATGGGCGTAGATTAGTAGTAGTTACTGGTTGAACATTGTTTGTTGGTGTATATATTGTAATTGGGATTGCTCGGGGGAATAGGTTATGTGATTAGGAGTAGGG	–	productive HIV infection of GSE-containing CEM-ss cells (intracellular p24+ cells) (HIV-1SF2): inhibited infection of human T cells by HIV-1SF2; suppression of HIV replication by the GSE [2]: suppresses HIV replication
CF-319: GSE; sense, identity with the gene for the ND6 subunit of human NADH dehydrogenase (nucleic acid) sense: GATCCTCCCGAATCAACCCTGACCCCTCTCCTTCATAAATTATTCAGCTTCCTACACTATTAAAGTTTACCACAACCACCACGCCATCATACTCCTTCAC	–	suppression of HIV replication by the GSE [2]: suppresses HIV replication
CF-101: GSE; sense, identity with the gene for the ND2 subunit of human NADH dehydrogenase (nucleic acid) sense: CATCAGCCCTTCTTAACATCTACTTCTACCTACGCCTAATCTACTCCACCTCAATCACACTACTCCCCATATCTAACAACGTAAAAATAAAATGACAGTTTGAGCATACAAAACCCACCCCATTCCTCCCCACACTCATCGCC	–	suppression of HIV replication by the GSE [2]: HIV-suppressive activities
CF-117: GSE; antisense, gene for the ND6 subunit of human NADH dehydrogenase (nucleic acid) antisense: GTGAAAGAGTATGATGGGGTGGTGGTTGTCGTAAACTTTAATAGTGTAGGAAGCTGAATAATTTATAAAGGAGAGGGGACAGGGTTGATTCGGGAGGATC	–	suppression of HIV replication by the GSE [2]: suppresses HIV activities
CF-025: GSE; antisense, gene for the ND2 subunit of human NADH dehydrogenase (nucleic acid) antisense: GAAGAAGCAGGCCGGATGTCAGAGGGGTGCCTTGGGTAACCTCTGGGACTCAGAAGTGAAAGGGGGCTATTCCTAGTTTTATTGCTATAGCCATTATGATTATTAATGATGAGTAT	suppresses HIV infection	–
CF-128: GSE; sense, gene for the ND4 subunit of human NADH dehydrogenase (nucleic acid) sense: TCCTAGTCCTCACAATCATGGCAAGCCAGCGCCACTTATCCAGTGAACCACTATCACGAAAAAAACTCTACCTCTCTATACTAATCTCCCTACAAATCTCCTTAATTATAATATTCACAACCACAGA	suppresses HIV infection	–
CF-302: GSE; antisense, gene encoding CD44 (nucleic acid) antisense: GATCCCTGGGCGCGGGGCAGGGGCCGGCGGAGGACGGGACGAGGATGGCGGACCGAACCTGGCAGAGGCTGGG	suppresses HIV infection	–
CF-317: GSE; antisense, gene encoding phosphatidyl-inositol 3 kinase (nucleic acid) antisense: CCAAGCTTCCTATCTTAAGCTGGGCGTTGATATCCAGGTCACAACTATAGATGTAGTGAAACTTCTCTGCTTCCCCCATCGCACCGTCTGCAAAGGTACCACC	suppresses HIV infection	–
CF-286: GSE; sense, gene encoding human elongation factor 1 alpha (nucleic acid) sense: CAGTTGGGGTGGGTGTCATCAAAGCAGTGGACAAGAAGGCTGCTGGAGCTGGCAAGGTCACCAAGTCTGCCCAGAAAGCTCAGAAGGCTAAATGAATATTATCCCTAATACCTGCCACCCCACTCTTAATCAGTGGTGGAAGAAC	suppresses HIV infection	–
CF-004: GSE; sense, gene encoding human 2-oxoglutarate dehydrogenase (nucleic acid) sense: GCGCAAAGCACGCGACATGGTGGGGCAGGTGGCCATCACAAGGATTGAGCAGCTGTCGCCATTCCCCTTTGACCTCCTGCTGAAGGAGGTGCAGAAGTACCCCAA	suppresses HIV infection	–
CF-204: GSE; antisense, gene encoding human calnexin (nucleic acid) antisense: GGTTGTCAATCACAGGTCGCCACCAGACACCACATCCAGGAGCTGACTCACATCTAGGGTTGGCAATCTGAGGAGCCTCCCATTCTCCATCCATGTCTTCATCCCAA	suppresses HIV infection	–
CF-273: GSE; sense, gene encoding human eukaryotic initiation factor 3 (nucleic acid) sense: GCTCGTCAGTGTCCACCCCTCCTCGCAACTCCAGGCGCTCCTTTTTCTGCTCCATATAGAGCTCCTGGGCCATTTTCCGGTACTTCCGGAAATCTTCCATCATGGTGCGCCTTC	suppresses HIV infection	–
CF-311: GSE; antisense, gene encoding a human protein tyrosine phosphatase (nucleic acid) antisense: GGGGGCTCTGTTTGGTGGTCTCTCTAGCTGCACTGGTCTATCAAGCTGTTGGCTGGTCTCTCTCTCTGGCTGGGGATC	suppresses HIV infection	–
CF-313: GSE; sense, gene encoding a human protein tyrosine phosphatase (nucleic acid) sense: CATTTTGTTACATAAGGATGACTTTTTTATACAATGGAATAAATTATGGCATTTCTATTGAAATTTCAACGCTTTTGTTTCTTTGGCAACCACAC	suppresses HIV infection	–
CF-210: GSE; sense, gene encoding human herpesvirus-associated ubiquitin-specific protease (HAUSP) (nucleic acid) sense: GCATTACAAAGAGTGTTCTATGAATTACAGCATAGTGATAAACCTGTAGGAACAAAAAAGTTAACAAAGTCATTTGGGTGGGAAACTTTAGATAGCTTCATGCAACATGATGTT	suppresses HIV infection	–
CF-266: GSE; antisense, gene encoding human eukaryotic initiation factor 4B (nucleic acid) antisense: GCCGTTCTTCTACTTCTCTTTCTCAAGCAGCAGTGTCAACAGGCTTTGCCCCTCCAAAGATAGAAGCAGCTCGAGTGGACTGGGAGGTACTAGCAGA	suppresses HIV infection	–
